Values joined by “and” are separate entries in the source; they are usually repeats but may differ in a detail not shown here. Equal values may be shown once.

Experiment [1] concerns LAX3pro:LAX3-YFP. Kind of experiment: LAX3pro:LAX3-YFP signal in overlying Co cells after gravistimulation. The format is in vivo, Arabidopsis thaliana. The protocol: (A) Seedlings were gravistimulated at 3 days post germination and the LAX3::LAX3-YFP signal was monitored under a confocal microscope from 14 hours post-gravitropic induction through 36 hours post-gravitropic induction at the root bend. Images were selected to show the earliest detection time points. […] Scale bars, 50 μm. (B) Quantification of relative occurrence of LAX3-YFP signal in Co at 22 hours post-gravitropic induction (hpg) based on the data presented in Table 3.
We monitored LAX3-YFP signal accumulation in overlying Co using the gravitropic assay.
Arabidopsis seedlings expressing LAX3::LAX3:YFP in the desired background were grown as described above for three days, followed by gravistimulation by turning the plates 90° . The cortical cell fluorescence at the root bend was monitored at different time points using a Zeiss LSM 780 confocal upright light microscope using a W Plan-Apochromat 20×/1.0 DIC M27 75 mm objective and the […] excitation line of an argon laser with 520-550 nm band pass emission filter. Images are presented as 3-D composites of 30 μm-thick z-stacks.

The subject of experiment [2] is Arabidopsis thaliana. Kind of experiment: Primary and lateral root quantification in seedlings. The format is in vivo. The protocol: (A) Lateral root development in wild type (WT) plants, plants having a severe knock down of PDLP5 (pdlp5-1), and plants overexpressing PDLP5 (PDLPOE) expressing DR5:GUS. Arrowheads indicate tertiary roots. (B) Quantification of total lateral root numbers (both emerged and unemerged secondary [2°], tertiary [3°], and quaternary [4°] roots). n≧30 per seedling set. Bars, standard deviation. Stars, significance determined by student T-test (P<0.01). (C) A diagram depicting several stages of LRP emergence. (D) Percent distribution of LRP stages, recorded at root bend at indicated time points following gravistimulation at 3 dpg. n≧20 seedlings per set.
(A-C) GUS-stained 11-day-old seedlings expressing DR5:GUS in wild type (WT) Col-0 plants (A), plants having a severe knock down of PDLP5 (pdlp5-1) (B), and plants overexpressing PDLP5 (PDLPOE) (C). Size bar in (A), common to (B) and (C). (D) Measurement of primary root length in 10-day-old wild type (WT) seedlings, seedlings having a severe knock down of PDLP5 (pdlp5-1), and seedlings overexpressing PDLP5 (PDLPOE). n=30 seedling per line. (E) Measurement of % emerged lateral root (LR) of total secondary roots in 10-day-old WT, pdlp5-1, and PDLP5OE seedlings. n=30 seedling per line. (F) Measurement of average secondary root length per seedling in 7-day-old WT and pdlp5-1. n=28 seedlings per line.
To investigate the importance of PD function during lateral root emergence, PDLP5 loss-of-function and over-expressing lines were characterized. […] Furthermore, this reduction in secondary root development was reiterated in later stages of root branching, with PDLP5OE showing reduced tertiary root occurrence (26% and 50% of WT at 8 and 11 day post germination [dpg], respectively). […] Lateral roots were 1.4-fold longer on average in pdlp5-1 than WT (FIG. 17F) at 7 dpg and later. […] Given the overall increase in average secondary root length in pdlp5-1, we conclude that the higher occurrence of tertiary and quaternary root formation can be attributed to an accelerated secondary root growth.
All Arabidopsis thaliana genotypes were in the Col-0 genetic background, except for shy2-2 in Ler, and iaa28-1 in Ws. Seedlings were grown vertically in 0.5X MS agar under a continuous light at 22° C. Plants in soil were grown in a 16 hr light, 22° C. All the genetic crosses (see Table 5) were selfed, and genotyped to identify homozygous mutations when necessary. Genomic DNA was isolated from segregating F2 plants followed by PCR analyses using gene-specific primers (see Table 6).
GUS solution (100 mM sodium phosphate buffer, pH 7.0, 10 mM EDTA, 0.5 mM each potassium ferrocyanide and potassium ferricyanide, 1.24 mM X-Gluc, and 0.1% Triton X-100) was vacuum-infiltrated into plant tissue for five minutes, then removed from vacuum and incubated in 37° C. for 3 to 12 hrs, followed by a series of ethanol washes. Stained tissues were imaged using Zeiss Axioskop 2 microscope. LRP were quantified by counting both the emerged LR and unemerged LR, as determined by DRS::GUS staining of the primordia, under a dissecting microscope (1.2× magnification). LRP stages were determined by examining ethanol-cleared, GUS-stained tissue using 40× water lens.

Where [3] appears, read: 22 hours post-gravitropic stimulation.

B1: PDLP5OE: Wild-type A. thaliana PDLP5 protein (SEQ ID NO:4) constitutively overexpressed in plants under the 35S promoter (protein, listed as Arabidopsis thaliana)
chain: MIKTKTTSLLCFLLTAVILMNPSSSSPTDNYIYAVCSPAKFSPSSGYETNLNSLLSSFVTSTAQTRYANFTVPTGKPEPTVTVYGIYQCRGDLDPTACSTCVSSAVAQVGALCSNSYSGFLQMENCLIRYDNKSFLGVQDKTLILNKCGQPMEFNDQDALTKASDVIGSLGTGDGSYRTGGNGNVQGVAQCSGDLSTSQCQDCLSDAIGRLKSDCGMAQGGYVYLSKCYARFSVGGSHARQTPGPNFGHEGEKGNKDDNGVGKTLAIIIGIVTLIILLVVFLAFVGKCCRKLQDEKWCK
Turning to B1, in experiment [1] (24 hpg), the “LAX3pro:LAX3-YFP cortical signal, ratio PDLP5:WT” value is 0.42 and 0.68; the “LAX3pro:LAX3-YFP cortical signal, seedlings” value is 33%. Also, the “LAX3pro:LAX3-YFP cortical signal, ratio PDLP5:WT” value in experiment [1] (24 hpg, mean) stood at 0.55. In experiment [1] (36 hpg), the “LAX3pro:LAX3-YFP cortical signal, ratio PDLP5:WT” value came out at 1. In experiment [1] (setting [3]), the “ratio to WT of seedlings expressing LAX3pro:LAX3-YFP in Co cells” value is listed as 0 and the “seedlings expressing LAX3pro:LAX3-YFP in overlaying Co cells” value is listed as “no fluorescent signals evident”. Besides, in experiment [2] (8 dpg), the “secondary roots, % of WT number” value is recorded as 66% and the “tertiary root occurrence, % of WT” value amounted to 26%. The “emerged LRP among total secondary roots, % of that found in WT” value in experiment [2] (10-day-old seedlings) is 50%. In experiment [2] (11 dpg), the “secondary roots, % of WT number” value was found to be 77% and the “tertiary root occurrence, % of WT” value was 50%. Besides, the “reduction in the primary root length” value in experiment [2] (ten-day-old seedlings, compared to WT) is recorded as “approximately 30%”.
